Measured values taken from patent US20230227548A1.

Target: murine GPRC5D (murine) (UniProt Q9JIL6)
Assay: FACS, murine GPRC5D cells

Sequence of murine GPRC5D (murine) (Q9JIL6 whole entry): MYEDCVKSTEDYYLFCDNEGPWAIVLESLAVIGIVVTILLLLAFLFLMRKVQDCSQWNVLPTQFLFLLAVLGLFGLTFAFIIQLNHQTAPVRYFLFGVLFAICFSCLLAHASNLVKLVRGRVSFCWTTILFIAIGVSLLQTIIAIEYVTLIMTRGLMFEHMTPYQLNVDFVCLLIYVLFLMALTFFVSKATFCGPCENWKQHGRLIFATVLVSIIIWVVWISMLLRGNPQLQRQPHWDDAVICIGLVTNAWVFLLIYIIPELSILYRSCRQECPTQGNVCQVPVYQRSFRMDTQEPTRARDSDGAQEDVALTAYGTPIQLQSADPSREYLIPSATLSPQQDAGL

MFI: 481
B1: GCDB72 (bispecific antibody, IgG4, V domains shown)
VH 1: EVQLVESGGGLVQPGGSLRLSCAASGFTFNTYAMNWVRQAPGKGLEWVARIRSKYNNYATYYAASVKGRFTISRDDSKNSLYLQMNSLKTEDTAVYYCARHGNFGNSYVSWFAYWGQGTLVTVSS
VL 1: QTVVTQEPSLTVSPGGTVTLTCRSSTGAVTTSNYANWVQQKPGQAPRGLIGGTNKRAPGTPARFSGSLLGGKAALTLSGVQPEDEAEYYCALWYSNLWVFGGGTKLTVL
VH 2: QVQLVQSGAEVKKPGASVKVSCKASGYSFTGYTMNWVRQAPGQGLEWMGLINPYNSDTNYAQKLQGRVTMTTDTSTSTAYMELRSLRSDDTAVYYCARVALRVALDYWGQGTLVTVSS
VL 2: DIQMTQSPSSLSASVGDRVTITCKASQNVATHVGWYQQKPGKAPKRLIYSASYRYSGVPSRFSGSGSGTEFTLTISNLQPEDFATYYCQQYNRYPYTFGQGTKLEIK
